Data on 13 molecules can be found in patent publication US20150080549A1 (Chugai, published 2015).

Starred links: 1 amine or outer side, 2 acyl side, 3 side chain; linkers in the order of their positions; H or OH if unused. Positions of bridges follow the written chain, without caps; N, C: chain ends. Non-standard residues stand in square brackets, D forms with d. Hyp(Et) = (2S,4R)-4-ethoxypyrrolidine-2-carboxylic acid, CCO[C@@H]1C[C@@H](C(=O)[*:2])N([*:1])C1; γEtAbu = 4-(ethylamino)butanoic acid, CCN(CCCC(=O)[*:2])[*:1]; Phe(4-CF3) = N[C@@H](Cc1ccc(C(F)(F)F)cc1)C(=O)O; NMeAla(4-thiazolyl) = CN[C@@H](Cc1cscn1)C(=O)O; NMePhe(3-Cl) = CN[C@@H](Cc1cccc(Cl)c1)C(=O)O; Met(O2) = CS(=O)(=O)CC[C@H](N)C(=O)O; NMeF = CN[C@@H](Cc1ccccc1)C(=O)O; FlPu(urea) = not defined here; Phg = N[C@H](C(=O)O)c1ccccc1; NMeS = CN[C@@H](CO)C(=O)O; βAla = NCCC(=O)O; Sar = CNCC(=O)O

The labels stand for the following.
T1: biotinylated Interleukin-6 receptor (IL-6R) (human, UniProt P08887 20-344, limits assumed, biotinylated (method of BMC biotechnology, 2008, 8, 41 and Protein Science, 1999, 8, 921-929); site not stated)
T1 construct: also called human IL-6 receptor; hIL-6R
T1 sequence (looked up): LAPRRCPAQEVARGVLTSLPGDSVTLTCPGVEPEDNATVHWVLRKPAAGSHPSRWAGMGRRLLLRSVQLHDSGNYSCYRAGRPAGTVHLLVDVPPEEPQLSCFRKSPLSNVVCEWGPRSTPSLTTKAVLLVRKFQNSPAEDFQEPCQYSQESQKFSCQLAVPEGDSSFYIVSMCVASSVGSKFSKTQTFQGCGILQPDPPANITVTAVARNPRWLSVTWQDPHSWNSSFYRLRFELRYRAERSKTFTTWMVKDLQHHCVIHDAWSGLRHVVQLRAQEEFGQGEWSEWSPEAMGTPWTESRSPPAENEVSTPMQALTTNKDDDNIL

B1: Compound SP844 (peptide)
peptide: A[Phe(4-CF3)]WWV[Sar]GP[Hyp(Et)]SD[NMeS][Met(O2)]S-OH
modifications: lactam N-11
SMILES: CCO[C@@H]1C[C@H]2C(=O)N[C@@H](CO)C(=O)N[C@H](C(=O)N(C)[C@@H](CO)C(=O)N[C@@H](CCS(C)(=O)=O)C(=O)N[C@@H](CO)C(=O)O)CC(=O)N[C@@H](C)C(=O)N[C@@H](Cc3ccc(C(F)(F)F)cc3)C(=O)N[C@@H](Cc3c[nH]c4ccccc34)C(=O)N[C@@H](Cc3c[nH]c4ccccc34)C(=O)N[C@@H](C(C)C)C(=O)N(C)CC(=O)NCC(=O)N3CCC[C@H]3C(=O)N2C1
notes: Chemically synthesized, HPLC purified
B2: Compound SP845 (peptide)
peptide: A[NMeAla(4-thiazolyl)]IPVWW[Phe(4-CF3)][Met(O2)]VDW[NMeAla(4-thiazolyl)]S-OH
modifications: lactam N-11
SMILES: CC[C@H](C)[C@@H]1NC(=O)[C@H](Cc2cscn2)N(C)C(=O)[C@H](C)NC(=O)C[C@@H](C(=O)N[C@@H](Cc2c[nH]c3ccccc23)C(=O)N(C)[C@@H](Cc2cscn2)C(=O)N[C@@H](CO)C(=O)O)NC(=O)[C@H](C(C)C)NC(=O)[C@H](CCS(C)(=O)=O)NC(=O)[C@H](Cc2ccc(C(F)(F)F)cc2)NC(=O)[C@H](Cc2c[nH]c3ccccc23)NC(=O)[C@H](Cc2c[nH]c3ccccc23)NC(=O)[C@H](C(C)C)NC(=O)[C@@H]2CCCN2C1=O
notes: as for B1
B3: Compound SP848 (peptide)
peptide: ATWI[NMeF][Phg]W[βAla][Phe(4-CF3)][Phg]DVTS-OH
modifications: lactam N-11
SMILES: CC[C@H](C)[C@@H]1NC(=O)[C@H](Cc2c[nH]c3ccccc23)NC(=O)[C@H]([C@@H](C)O)NC(=O)[C@H](C)NC(=O)C[C@@H](C(=O)N[C@H](C(=O)N[C@H](C(=O)N[C@@H](CO)C(=O)O)[C@@H](C)O)C(C)C)NC(=O)[C@H](c2ccccc2)NC(=O)[C@H](Cc2ccc(C(F)(F)F)cc2)NC(=O)CCNC(=O)[C@H](Cc2c[nH]c3ccccc23)NC(=O)[C@H](c2ccccc2)NC(=O)[C@H](Cc2ccccc2)N(C)C1=O
notes: as for B1
B4: Compound SP842 (peptide)
peptide: [γEtAbu]T[Phg]I[NMeAla(4-thiazolyl)]WW[Phe(4-CF3)][dY][NMePhe(3-Cl)]DP[Sar]S-OH
modifications: lactam N-11
SMILES: CC[C@H](C)[C@@H]1NC(=O)[C@H](c2ccccc2)NC(=O)[C@H]([C@@H](C)O)NC(=O)CCCN(CC)C(=O)C[C@@H](C(=O)N2CCC[C@H]2C(=O)N(C)CC(=O)N[C@@H](CO)C(=O)O)NC(=O)[C@H](Cc2cccc(Cl)c2)N(C)C(=O)[C@@H](Cc2ccc(O)cc2)NC(=O)[C@H](Cc2ccc(C(F)(F)F)cc2)NC(=O)[C@H](Cc2c[nH]c3ccccc23)NC(=O)[C@H](Cc2c[nH]c3ccccc23)NC(=O)[C@H](Cc2cscn2)N(C)C1=O
notes: as for B1
B5: Compound SP846 (peptide)
peptide: ATIP[dY]WW[Phe(4-CF3)][Met(O2)]VDW[NMeAla(4-thiazolyl)]S-OH
modifications: lactam N-11
SMILES: CC[C@H](C)[C@@H]1NC(=O)[C@H]([C@@H](C)O)NC(=O)[C@H](C)NC(=O)C[C@@H](C(=O)N[C@@H](Cc2c[nH]c3ccccc23)C(=O)N(C)[C@@H](Cc2cscn2)C(=O)N[C@@H](CO)C(=O)O)NC(=O)[C@H](C(C)C)NC(=O)[C@H](CCS(C)(=O)=O)NC(=O)[C@H](Cc2ccc(C(F)(F)F)cc2)NC(=O)[C@H](Cc2c[nH]c3ccccc23)NC(=O)[C@H](Cc2c[nH]c3ccccc23)NC(=O)[C@@H](Cc2ccc(O)cc2)NC(=O)[C@@H]2CCCN2C1=O
notes: as for B1
B6: SEQ ID NO: PE-14 (IL-6R binder) peptide (peptide)
peptide: AII[NMeAla(4-thiazolyl)]WP[NMePhe(3-Cl)][Met(O2)][dY][βAla]DP[NMePhe(3-Cl)]SGSGSGS-{FlPu(urea)}
modifications: lactam N-11; reading uncertain
notes: Translated in ECL Translation Solution T, cyclized and desulfurized; not isolated; also called translation product of template DNA DME-14
B7: SEQ ID NO: PE-2 (IL-6R binder) peptide (peptide)
peptide: APII[NMeF][Met(O2)]P[NMePhe(3-Cl)][dY]VDSTSGSGSGS-{FlPu(urea)}
modifications: lactam N-11; reading uncertain
notes: Translated in ECL Translation Solution T, cyclized and desulfurized; not isolated; also called translation product of template DNA DME-2
B8: SEQ ID NO: PE-13 (IL-6R binder) peptide (peptide)
peptide: APVI[NMeF][Met(O2)]P[NMePhe(3-Cl)]V[Met(O2)]DP[Sar]SGSGSGS-{FlPu(urea)}
modifications: lactam N-11; reading uncertain
notes: Translated in ECL Translation Solution T, cyclized and desulfurized; not isolated; also called translation product of template DNA DME-13
B9: SEQ ID NO: PE-3 (IL-6R binder) peptide (peptide)
peptide: APIIW[NMePhe(3-Cl)][Met(O2)]P[NMePhe(3-Cl)][dY]DV[dY]SGSGSGS-{FlPu(urea)}
modifications: lactam N-11; reading uncertain
notes: Translated in ECL Translation Solution T, cyclized and desulfurized; not isolated; also called translation product of template DNA DME-3
B10: SEQ ID NO: PE-9 (TNFα binder) peptide (peptide)
peptide: A[NMeAla(4-thiazolyl)]IPVWW[Phe(4-CF3)][Met(O2)]VDW[NMeAla(4-thiazolyl)]SGSGSGS-{FlPu(urea)}
modifications: lactam N-11; reading uncertain
notes: Translated in ECL Translation Solution T, cyclized and desulfurized; not isolated; also called translation product of template DNA DME-9
B11: SEQ ID NO: PE-8 (TNFα binder) peptide (peptide)
peptide: A[Phe(4-CF3)]WWV[Sar]GP[Hyp(Et)]SD[NMeS][Met(O2)]SGSGSGS-{FlPu(urea)}
modifications: lactam N-11; reading uncertain
notes: Translated in ECL Translation Solution T, cyclized and desulfurized; not isolated; also called translation product of template DNA DME-8
B12: SEQ ID NO: PE-10 (TNFα binder) peptide (peptide)
peptide: ATIP[dY]WW[Phe(4-CF3)][Met(O2)]VDW[NMeAla(4-thiazolyl)]SGSGSGS-{FlPu(urea)}
modifications: lactam N-11; reading uncertain
notes: Translated in ECL Translation Solution T, cyclized and desulfurized; not isolated; also called translation product of template DNA DME-10
B13: SEQ ID NO: PE-11 (TNFα binder) peptide (peptide)
peptide: ATWI[NMeF][Phg]W[βAla][Phe(4-CF3)][Phg]DVTSGSGSGS-{FlPu(urea)}
modifications: lactam N-11; reading uncertain
notes: Translated in ECL Translation Solution T, cyclized and desulfurized; not isolated; also called translation product of template DNA DME-11

For one assay, the target named is T2, biotinylated Recombinant Human Tumor Necrosis Factor-alpha (Prospec, Catalog Number #CYT-223) (human, UniProt P01375 77-233, biotinylated with EZ-Link NHS-PEG4-Biotin (Thermo scientific 21329); sites not stated).
T2 construct: Bought protein; also called TNFα; tumor necrosis factor-α
T2 sequence (P01375 77-233 limits assumed): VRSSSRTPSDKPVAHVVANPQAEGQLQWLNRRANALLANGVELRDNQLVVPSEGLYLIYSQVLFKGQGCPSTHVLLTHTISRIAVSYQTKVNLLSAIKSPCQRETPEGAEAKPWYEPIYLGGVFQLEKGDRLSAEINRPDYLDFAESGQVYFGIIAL
Nature of the assay: SPR, Biacore T200, 20 C; biotinylated TNFα captured on sensor chip CAP, peptide as analyte; KD=koff/kon from curve fitting. The procedure: An SPR experiment for analyzing the interaction between synthetic peptides and TNFα was conducted using Biacore T200 (GE healthcare) at 20° C. Synthetic peptides were added to the immobilized protein, and the interaction was evaluated.
Surfactant P-20 and DMSO were added to the above phosphate buffered saline at final concentrations of 0.01 vol % and 5 vol %, respectively, and the resulting mixture was used as running buffer. CAP reagent was immobilized on a Biacore sensor chip, Series S sensor chip CAP (GE healthcare), according to the instructions, and biotinylated TNFα was immobilized. Each synthetic peptide was added at multiple concentrations, and sensorgrams for binding to the immobilized TNFα were provided to measure dissociation constants (KD).
The obtained sensorgrams were analyzed using T200 evaluation software (GE healthcare) or Scrubber2 (Biologic software). First, solvent correction for DMSO and double reference (correction by subtracting sensorgrams of flow cells where TNFα was not immobilized and sensorgrams in the case where the buffer was added) were carried out. Second, binding rate constants (kₒₙ) and dissociation rate constants (koff) were calculated from curve fitting to the corrected sensorgrams, and KDs were determined by the relational expression KD=koff/kₒₙ.
Background: Surface plasmon resonance follows binding to a sensor surface in real time, without labels.
For the molecule B1, the Kd was found to be 20 nM.

For the molecule B2, the Kd amounted to 940 nM.

In the case of B3, the Kd is 250 nM.

For B4, the Kd was 160 nM.

For the molecule B5, the Kd stood at 2000 nM.

In a further assay the target is T1, biotinylated Interleukin-6 receptor …. Nature of the assay: ECL immunoassay (MSD): biotinylated target on streptavidin plate, translated FlPu(urea)-labelled cyclic peptide (Translation Solution T), anti-fluorescein and SULFO-TAG anti-mouse antibody; no-template control 177. The procedure: (§1) 0.5 μl of a 200 mM EDTA solution (pH 8.0, Nacalai, 14362-24) and 0.5 μl of a 100 mM TCEP solution (pH 6.6) were added to 5 μL of the translation mixture, and the mixture was incubated at 37° C. for 120 minutes to cause cyclization reaction. 11 μL of desulfurization buffer (15 mM cysteine, 36 mM TCEP) was added to the cyclization product, and the mixture was incubated at 42° C. for 1 minutes, after which 4 μL of 1 M VA-044 (Wako, CAS No. 27776-21-2) was added and the mixture was allowed to stand at 42° C. for 1 hour.
(§2) Immunoassay was carried out using the above peptide solution for ECL assay. 500 nM biotinylated target protein was added at 10 μL per well to MSD Streptavidin MULTI-ARRAY 384-well plate (Meso Scale Discovery, L25SB-1), and reaction was conducted at room temperature for 1 hour with shaking at 500 rpm to immobilize the target protein. 2% skim milk PBS was added at 50 μL per well, and blocking was carried out by allowing to stand at room temperature for 2 hours. The reaction solution was removed and the plate was washed with PBS containing 0.05% Tween 20 (PBST) three times, after which 10 μL of the peptide solution for ECL assay was added and the plate was shaken at room temperature for 50 minutes at 500 rpm. The reaction solution was removed and the plate was washed with PBST three times, after which 10 μL of IgG Fraction Monoclonal Mouse Anti-Fluorescein (Jackson ImmunoResearch, 200-002-037) diluted to 0.5 μg/mL with 2% skim milk PBS was added, and reaction was conducted at room temperature for 50 minutes with shaking at 500 rpm. The reaction solution was removed and the plate was washed with PBST three times, after which 10 μL of SULFO-TAG Anti-Mouse Antibody (Meso Scale Discovery, R32AC-5) diluted to 1 μg/mL with 2% skim milk PBS was added, and reaction was conducted at room temperature for 50 minutes with shaking at 500 rpm. The reaction solution was removed and the plate was washed with PBST three times, after which 35 μl, of 2× Read Buffer T (Meso Scale Discovery, R92TC-3) was added and measurement was carried out using SECTOR Imager 2400 (Meso Scale Discovery).
Molecule B6 showed an ECL signal of 45600.

B7: the ECL signal is 307000.

On to B8, for which the ECL signal turned out to be 537000.

As to B9, the ECL signal was found to be 70000.

A further assay addresses T2, biotinylated Recombinant Human Tumor …. Nature of the assay: ECL immunoassay (MSD): biotinylated target on streptavidin plate, translated FlPu(urea)-labelled cyclic peptide (Translation Solution T), anti-fluorescein and SULFO-TAG anti-mouse antibody; no-template control 232. The procedure:
as §1, §2
For the molecule B10, the ECL signal was 264000.

In the case of B11, the ECL signal stood at 73300.

On to B12, for which the ECL signal was determined as 50700.

Turning to B13, the ECL signal is 149000.

Broadly, the Kd is the equilibrium constant for the complex coming apart.
